According to the DeepSol protein solubility set:

test: soluble on expression in E. coli; label from the status in PepcDB or PDB records

Sequence	soluble on expression in E. coli
MSLIDLKQYEFWFLVGSQYLYGLETLKKVEQQASKIVDSLNDDPIFPSKIVLKPVLKSSSEITEIFEKANADPKCAGVIVWMHTFSPSKMWIRGLSINKKPLLHLHTQYNREIPWDTIDMDYMNLNQSAHGDREHGFIHARMRLPRKVVVGHWEEKEVREKIAKWMRVACAIQDGRMGQIVRFGDNMREVASTEGDKVEAQIKLGWSINTWGVGELAERVKAVPEREVEELLKEYREKYIMPEDEYSLKAIREQAKIEIALREFLKEKNAVGFTTTFEDLHDLPQLPGLAVQRLMEEGYGFGAEGDWKAAGLVRAIKVMGTSLPGGTSFMEDYTYHLTPGNELVLGAHMLEVCPTIAKEKPRIEVHPLSIGGKADPARLVFDGQEGPAVNASIVDMGNRFRLVVNKVLSVPIERKMPKLPTARVLWKPLPDFKRATTAWILAGGSHHTAFSTAIDVEYLIDWAEALEIEYVVIDENLDLEDFKKELRWNELYWGLLKREGHHHHHH	soluble
MSLNMKTFKFFTALFATAILTACTLDMERPTNVQYIDKTDAIWQQHLQKIQKIQSYQAKGQIGYISPTERFSSRFEWQYQNPKSYTLKLYSLISKSTLWIQMHQSGMTISDNNGNQQSAANSKLLLQEIIGMDVPLEHLAYWLKGQPAMNADYQVGTNHLLGAFTYHVDGSQWTADYLTYHSNNSMPENILLKNDSTKQTLKIRVDEWIYEGGSHHHHHH	soluble
SSSSSDGGLFRSRPAHSLPPGEDGRVEPYVDFAEFYRLWSVDHGEQSVMTAP	soluble
MHRALNQDDDHNQDGQDLLEAVLARDNLARAWRRVKSNRGAPGIDGVTTAEWPEHARAHWPATREQIEAGRYRPQPVRRVDIPKPDGGQRQLGIPTVTDRVIQQAIAQVLIPIFDPGFSASSFGFRPGRNAHQAIRQVQAHVKAGYRWAVDLDLARFFDNVNHDLLMSLLSRSIADKRLLALIGRYLRAGVLVGEHPQPSEVGTPQGGPLSPLLANVLLHQFDLELERRGHRFARYADDVIILVKSRRAAERVMQSLTYFLQSTLKLTVNLAKSQVAPMSECSFLGFTLVGKKIRWTEKSLANFKHRVRQLTGRSWGVSMEYRLEKLGQYLRGWFGYYGISQYYRPIPELDEWIRRRVRMCYWKQWRWARTKIRHLLDLGIPLKAAIQHGVSSLSYWRMARTPVTQQAMSNDWLRAQGLLSIKDLWCKAQSYGPDKGLEHHHHHH	not soluble
MAHHHHHHMMSPFPPLPVYLSGLLTLHVPTRCLHFLVLTPMKTRVGLHRCCASYLRLLSQDRLQLHNPIEFIGALHFFTSLCSPLGVADFLRMEDPAAQEVVVTPWTVEGDVNYDKLIKNFGCQAIDDKLLERMERLTGKKPHHFLRRGIFFSHRDLNLILDAYEKGQPFYLYTGRGPSSESMHVGHLIPFMFTKWLQDTFHVPLVIQLTDDEKFFFKDLTMEEIDKMTTENLKDIIAFGFDPKLTFIFRDFEYVGQMYRIVARIEKAYTASQVRGCFGFKMEDNCGRWMFPAIQAAPSFSAAFPHIFPLQKGNVFCMIPQAIDQDPYFRLTRDVAPRMGYLKPAVIHSKFFPGLSGSKGKMSSSTGAAVFLTDTPKMIKDKINKHAFSGGGADKKEQLLLGGNTNVDVPVQWLRFFLEDDEELKRLQKDYMLGRIMTGDVKKVLIRQITSIVTAHQESRKKVTEADVELFTAVRVMGPAKEEAESRK	not soluble
GSCSSKPANTAKGEKGSDKTGKDLELKLSFQEGIAPGESLNEKLDFMEKLGVVGFEPGGGGLAGRVNEIKQALNGRNIKVSAICAGFKGFILSTDPAIRKECMDTMKEIIAAAGELGSTGVIIVPAFNGQVPALPHTMETRDFLCEQFNEMGTFAAQHGTSVIFEPLNRKECFYLRQVADAASLCRDINNPGVRCMGDFWHMTWEETSDMGAFISGGEYLQHVHVASRKRRSMPGEDGDADNYINGFKGLKMIGYNNYVSFECGCQGDRNVVVPAAVKLLREQWEQA	soluble
MGSDKIHHHHHHMITSVAVVGCGWFGLPLAKALLSQGLKVTGSKRSPQEAEALSADGITGFALDLETLESEDLSSQTREAITQGLACDAIVINIPPGLRRGDNGYLDRLKRLKALMGTHEYQRIIFISTSGVYPAGGDSSGSGCVESDAKVHSPASETLLAAEALFSGANSADGVSNNHSDGSESNNSCVVVRFAGLIGPKRHPGRFLAGREDVPGGNLAVNMVHLDDCIGAVTLLLKAEGALSPAYNLCAPLHPTKAEFYQKAATQQGLTPPSFIEGDLAEDKRVDGGLITRELNYQYKFTDPLAMLTHC	not soluble
MSLRKYPEYTWDLTTIFKDDEAFEAAFKEVENELGKEEQFKGHIGDSAETLYNALELEDTLGTKLEKVYVYAHLKQDQDTTNDKYTGMESRAHQLIIKFSSAWSFLVPEILQIDEDKIQSFVNSYDKLQKFAFDLKLINEKRPHILDAETEKLLTEAQDALSTPSNVYGMFSNADLVFEDAIDKDGNAHPLTQGTFIKYLESDDRKLRESAFRNVYKAYGAHNNTLGATLAGEVKKNVFNARTHNYKTAREKALSNNHIPENVYDNLVKTVHKYLPLLHRYTELRKELLGLDDLKMYDLYTPLIKDIKFEMPYEEAKEWMLKALEPMGEEYLNVVKEGLNNRWVDVYENKGKRSGGYSSGAHLTNPFILLNWSNTISDLYTLVHEFGHSAHSYFSRKFQPSNSSDYTIFVAEVASTCNEALLSDYMDKHLDDEKRLLLLNQELERFRATLFRQTMFAEFEHKIHAIEEAGEPLTPTRMNEEYAKLNKLYFGDSVETDEDISKEWSRIPHFYMNYYVYQYATGYSAAQSLSHQILTEGKPAVDRYINEFLKKGSSNYPIEILKNAGVDMTTPEPIEQACEVFEQKLNAFEKLMKEGHHHHHH	soluble
MEINQKREEEDDDEMEWRRDGVKRDSNDFSNYCRQRSLSSDATIMSRQFFVYLIFHVLIDNVIARAPFTRDRPRGLGLLQLPTGMTDERSGPFFPGLYIAGDKAGQKPQTVPDVSLPGQTASFTGRSAFNPFTHMVSAVYTEDLVDAWGAGFAVNGVNNHGLNVRKNFDAFADAPLSSSDGMYQPFLSAASIGSEYDFSKIREVSGNFNLPIPGVNELFDFDGRFMVKGGGNGILNSAMEFPLTLSDPNERAPYTFKYLNYMADRHMHYGHVVPNVNLFVVGKDKIMERLMQNRLNPTMVG	not soluble
MGSDKIHHHHHHMKILITGANGQLGREIQKQLKGKNVEVIPTDVQDLDITNVLAVNKFFNEKKPNVVINCAAHTAVDKCEEQYDLAYKINAIGPKNLAAAAYSVGAEIVQISTDYVFDGEAKEPITEFDEVNPQSAYGKTKLEGENFVKALNPKYYIVRTAWLYGDGNNFVKTMINLGKTHDELKVVHDQVGTPTSTVDLARVVLKVIDEKNYGTFHCTCKGICSWYDFAVEIFRLTGIDVKVTPCTTEEFPRPAKRPKYSVLRNYMLELTTGDITREWKESLKEYIDLLQM	soluble
MGSDKIHHHHHHMMGLKAHAMVLEKFNQPLVYKEFEISDIPRGSILVEILSAGVCGSDVHMFRGEDPRVPLPIILGHEGAGRVVEVNGEKRDLNGELLKPGDLIVWNRGITCGECYWCKVSKEPYLCPNRKVYGINRGCSEYPHLRGCYSSHIVLDPETDVLKVSEKDDLDVLAMAMCSGATAYHAFDEYPESFAGKTVVIQGAGPLGLFGVVIARSLGAENVIVIAGSPNRLKLAEEIGADLTLNRRETSVEERRKAIMDITHGRGADFILEATGDSRALLEGSELLRRGGFYSVAGVAVPQDPVPFKVYEWLVLKNATFKGIWVSDTSHFVKTVSITSRNYQLLSKLITHRLPLKEANKALELMESREALKVILYPEG	soluble
MAHHHHHHMLPSVMDRYESYDFGKELLSLLKTASSTPGAHMGVFTGMGLLLAKYRPEKLLEHVNMHAKKINTHKMIAACEEYHLWLVLRVLHVNNEDWLAAATTMMHHHVDAWDHDVFKTVVSHLGSSDLVYNSISFYIQTNPQLLDDFLTSMFKTLDPERVLLEVKKLAPVHFIRQYLESAQERNSRRVNEAINKLYMEEEDFTALRDSVERFDNFDSAELSAELEKMELFEFRKIALFLHRRNKRFTHAVAVAKENKLYQDAIETAAESANPQIVEDLLDFFVVDHPDCFVACLYTCYDYLTPQVVMEKAWLNKRTDLAMPYFIQVIQDYTTKLSRMEKSMMDAQQLAKEAARRAGPLHTGANDPLMIQAGPANPMGGAMPMPMPMPMPMPMMGGVPPGNYGPPPQFDNRRPY	not soluble
KTLPRDEKEKQIADSKERLKSDTQKVKDAKNADAIKKAFEEGKVNIPQAHIPGDLNKDKEKLLAELKQKADDTEKAIDVDKT	not soluble
MTIKKYKTALSGMFPEEIQSFCGLKEKFRAQQIFHWIASGVNSFDEMTNLSFDMRSKLKNDFSLFSTKIKEALKDKDGTIKLAVELYDGSVIETVLLTDKAKRKTACVSCQAGCPMKCAFCKTGQIGFLRNLSASEIVEQFLHLEREAGSLDNIVFMGMGEPMLNLPEIDKAINILAHPKGRNLSKRRITISTSGLCKGIYEMADKGPEVRLAVSLTTADETLRSELMPITKTNSLDELKQAIKYFNSKSNKRVTLELALMKGLNTDKKAAQEVIEFAKGLECFINLIPWNPVEGLNFKTPSETEVRTFETYLKKAGLNISTRQKRGQSIGGACGQLGSTAARSNRF	not soluble
MGGSFGKKGASSATAAQVPLATETTPGLMSPSEKLKLSTLTTSIATSDFYASYDFMMHSIGLTSANNISLLSTGNISLQNILSEGNHFGVQPIVSSTTANASFLAGMLMAIFPKESELEVTVYFKTPSAFNPAQLTVIGSTSIGLGISDRSGLIIENGNAFGGIVKASAATETGSTYALSTSTWYICKFKMLTDDRFKVTLYSDSGTQLYSYTSTAAMFRADNATAHIGFKTQCKTATAGISLISIDLIEFKAKVSATRAKV	soluble
MNNSEQLIALKESETAFLKYFNKADYELVDFSVVEKLDWKQLNHEDLQQMGERNFWQHEHQIYALRNDFTDQLLRYYSMYPTAATKVAYTGLIIRNNEAAVQVGLENYAPSLANVQQSLKLFIQFIQQQLRDNVHFVVLGHYQLLDALLDKSLQTPDILSMIEERNLSGLVTYLSTEHPIVQILKENTQQQLNVLEHYIPNDHPALVELKIWERWLHTQGYKDIHLDITAQPPRSYYTGLFIQCHFAENESRVLTGGYYKGSIEGFGLGLTL	soluble
MNEADMLFSVTVPGSTANLGPGFDSVGMALSRYLKLTVFESDKWSFEAETETVAGIPAGTDNLIYQVAKRTADLYGKEMPPVHVKVWSDIPLARGLGSSAAAIVAAIELADELCGLKLSEADKLHLASLEEGHPDNAGASLVGGLVIGLHEDDETQMIRVPNADIDVVVVIPFYEVLTRDARDVLPKEFPYADAVKASAVSNILIAAIMSKDWPLVGKIMKKDMFHQPYRAMLVPELSKVEHVAEMKGAYGTALSGAGPTILVMTEKGKGEELKEQLALHFPHCEVDALTVPKEGSIIERNPLYQVKSV	not soluble
MKIIDFRLRPPAMGFLNARIYTRPDIRNRFTRQLGFEPAPSAEEKSLELMFEEMAAAGIEQGVCVGRNSSVLGSVSNADVAAVAKAYPDKFHPVGSIEAATRKEAMAQMQEILDLGIRIVNLEPGVWATPMHVDDRRLYPLYAFCEDNGIPVIMMTGGNAGPDITYTNPEHIDRVLGDFPDLTVVSSHGNWPWVQEIIHVAFRRPNLYLSPDMYLYNLPGHADFIQAANSFLADRMLFGTAYPMCPLKEYTEWFLTLPIKPDAMEKILHGNAERLLAQAGRLEHHHHHH	not soluble
MSLAKQPIDLLIQPKWRIIDQSSLGPYFDAKQSFAIDDTLCASVGKGLSPATARSWVHHDTIVLGIQDTRLPYLQEGISLLEEAGYQAIVRNSGGLAVVLDSGVLNVSLIFQDKKNGIDIDRGYEAMFELVKRMLSSYDAAIEAYEIKGSYCPGSFDLSIGGRKFAGISQRRLRGGVAVQIYLCADQSGSGRAELIKRFYDTALKDMRGKTKAVYPDIRPETMASLSELLNEDISVQDLMLLLLTQLKELGGEIYQGPLTPAEEEVYEKNLVRMIERNEKVFGEGHHHHHH	soluble
